IntAct's records for PubMed 16762039

Target: hic1_human HIC1 (UniProt Q14526)
Sequence (Q14526 whole entry): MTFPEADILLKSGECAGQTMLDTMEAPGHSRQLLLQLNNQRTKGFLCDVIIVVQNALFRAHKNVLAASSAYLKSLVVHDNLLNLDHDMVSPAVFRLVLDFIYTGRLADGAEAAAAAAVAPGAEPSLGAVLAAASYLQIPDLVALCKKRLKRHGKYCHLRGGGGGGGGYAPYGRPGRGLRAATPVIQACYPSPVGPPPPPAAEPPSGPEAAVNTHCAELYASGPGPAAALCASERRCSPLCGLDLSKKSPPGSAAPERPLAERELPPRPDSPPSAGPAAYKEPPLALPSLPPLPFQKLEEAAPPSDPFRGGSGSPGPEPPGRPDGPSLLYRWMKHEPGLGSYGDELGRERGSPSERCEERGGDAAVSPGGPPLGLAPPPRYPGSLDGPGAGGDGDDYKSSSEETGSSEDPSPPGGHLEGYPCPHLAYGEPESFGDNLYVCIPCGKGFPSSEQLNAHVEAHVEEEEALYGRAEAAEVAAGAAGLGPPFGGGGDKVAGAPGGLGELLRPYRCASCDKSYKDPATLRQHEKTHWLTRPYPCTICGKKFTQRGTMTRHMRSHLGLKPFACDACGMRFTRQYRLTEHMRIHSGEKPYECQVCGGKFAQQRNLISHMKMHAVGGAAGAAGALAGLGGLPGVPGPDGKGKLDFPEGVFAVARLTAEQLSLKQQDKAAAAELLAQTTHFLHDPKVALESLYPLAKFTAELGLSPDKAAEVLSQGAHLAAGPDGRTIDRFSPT

Chain of C-terminal-binding protein 2 (Mus musculus), P56546 V72R (P56546 whole entry V72R): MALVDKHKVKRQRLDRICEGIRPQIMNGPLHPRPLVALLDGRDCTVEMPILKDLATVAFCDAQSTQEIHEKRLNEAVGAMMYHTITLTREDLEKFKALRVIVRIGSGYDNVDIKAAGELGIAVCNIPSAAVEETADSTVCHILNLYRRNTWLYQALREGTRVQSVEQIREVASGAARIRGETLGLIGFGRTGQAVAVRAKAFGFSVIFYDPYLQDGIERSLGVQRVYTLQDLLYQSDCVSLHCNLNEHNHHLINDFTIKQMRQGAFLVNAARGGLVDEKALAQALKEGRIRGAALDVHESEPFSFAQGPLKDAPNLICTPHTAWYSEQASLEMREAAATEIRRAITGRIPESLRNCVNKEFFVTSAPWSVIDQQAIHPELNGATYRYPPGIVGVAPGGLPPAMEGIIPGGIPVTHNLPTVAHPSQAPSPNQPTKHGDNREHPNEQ
Chain of C-terminal-binding protein 2 (Mus musculus), P56546 A58E (P56546 whole entry A58E): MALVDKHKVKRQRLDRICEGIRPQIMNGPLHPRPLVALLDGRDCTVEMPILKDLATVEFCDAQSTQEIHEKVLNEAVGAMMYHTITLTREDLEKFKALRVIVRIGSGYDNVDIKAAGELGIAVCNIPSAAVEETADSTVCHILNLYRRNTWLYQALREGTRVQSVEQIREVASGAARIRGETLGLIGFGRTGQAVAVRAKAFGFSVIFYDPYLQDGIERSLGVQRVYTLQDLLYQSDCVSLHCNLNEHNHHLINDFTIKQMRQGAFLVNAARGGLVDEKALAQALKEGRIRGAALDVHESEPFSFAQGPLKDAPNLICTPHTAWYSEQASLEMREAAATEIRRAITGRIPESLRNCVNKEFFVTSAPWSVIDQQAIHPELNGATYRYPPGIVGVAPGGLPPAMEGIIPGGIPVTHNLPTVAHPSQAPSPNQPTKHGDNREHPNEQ

Row | Substance | effect of a mutation on the interaction
1 | C-terminal-binding protein 2 (Mus musculus), P56546 A58E | disrupting interaction
2 | C-terminal-binding protein 2 (Mus musculus), P56546 V72R | disrupting interaction
